According to US20110143953A1 (ARIZONA BOARD OF REGENTS A BODY CORPORATE OF THE STATE OF …, published 2011):

Tests used:
transferrin = molecular target: T1, transferrin (UniProt P02787 20-698, randomly labelled at free amines with Alexa 555 in the peptide array screen; amine-coupled to the chip in SPR); experiment: SPR (Biacore T100), transferrin immobilized, steady-state response
T1 construct: also called TRF
Text: Flow rates and contact times are adjusted as necessary to provide the surface concentration of target desired for the intended application, and may vary by target. In general, for evaluating whether binding occurs, it is preferable to immobilize a relatively large quantity of target, and higher flow rates and/or longer contact times may be used. For determining kinetics, it is preferable to limit the amount of target immobilized so as to minimize rebinding and avidity effects, and lower flow rates and/or contact times may be used.
Candidate affinity elements for the transferrin synbody TRF19, TRF21, TRF23, TRF24, TRF25, and TRF26 were individually evaluated for solution phase KD with respect to transferrin by SPR analysis. […] For each experiment, response data were processed using a reference surface to correct for bulk refractive index changes and any non-specific binding. Data were also double referenced using responses from blank running buffer injections.

Gal80 [1] = molecular target: T2, Gal80 (UniProt P04387 1-435, limits assumed, labelled with Cy3 or Cy5 in the peptide array screen); experiment: SPR, gal80 immobilised on the chip, Kd from on and off rates
T2 sequence (looked up): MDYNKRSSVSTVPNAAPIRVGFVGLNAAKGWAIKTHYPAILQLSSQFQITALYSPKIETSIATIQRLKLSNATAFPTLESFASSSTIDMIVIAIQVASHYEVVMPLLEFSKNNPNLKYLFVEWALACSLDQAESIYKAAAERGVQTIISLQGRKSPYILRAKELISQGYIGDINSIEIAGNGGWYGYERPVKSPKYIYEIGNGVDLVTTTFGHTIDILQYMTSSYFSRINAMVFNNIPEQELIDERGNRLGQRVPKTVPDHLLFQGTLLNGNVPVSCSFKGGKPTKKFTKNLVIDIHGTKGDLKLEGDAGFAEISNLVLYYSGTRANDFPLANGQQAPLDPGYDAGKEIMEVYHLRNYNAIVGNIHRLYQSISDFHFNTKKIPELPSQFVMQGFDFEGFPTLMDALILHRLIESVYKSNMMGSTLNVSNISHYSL

Gal80 [2] = molecular target: T2, Gal80; experiment: gel shift assay; gel shift assay
Gal80 [3] = molecular target: T2, Gal80; experiment: SPR, synbody in solution (1 µM to 7.81 nM) on surface-bound Gal80; SPR, synbody in solution, surface-bound Gal80

T1 sequence (P02787 20-698 limits assumed): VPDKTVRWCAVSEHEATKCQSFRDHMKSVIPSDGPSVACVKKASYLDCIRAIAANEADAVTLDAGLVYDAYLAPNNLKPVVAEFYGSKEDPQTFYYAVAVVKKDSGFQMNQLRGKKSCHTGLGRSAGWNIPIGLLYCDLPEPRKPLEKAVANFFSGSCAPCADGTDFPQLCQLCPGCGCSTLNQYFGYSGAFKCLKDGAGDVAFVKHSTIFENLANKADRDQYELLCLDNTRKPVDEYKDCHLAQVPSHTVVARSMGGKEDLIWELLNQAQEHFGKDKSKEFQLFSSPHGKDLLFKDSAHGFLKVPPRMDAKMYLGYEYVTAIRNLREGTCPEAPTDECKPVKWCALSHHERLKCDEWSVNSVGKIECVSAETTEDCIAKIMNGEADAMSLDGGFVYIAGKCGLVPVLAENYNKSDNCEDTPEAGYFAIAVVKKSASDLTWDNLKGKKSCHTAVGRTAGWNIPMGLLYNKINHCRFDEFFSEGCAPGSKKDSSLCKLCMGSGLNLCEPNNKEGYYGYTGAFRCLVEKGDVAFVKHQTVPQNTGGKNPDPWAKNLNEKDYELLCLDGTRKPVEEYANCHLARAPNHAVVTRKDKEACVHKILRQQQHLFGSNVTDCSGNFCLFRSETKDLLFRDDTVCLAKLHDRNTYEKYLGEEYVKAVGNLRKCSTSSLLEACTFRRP

Binder	Kd (transferrin)	other results
SVKPWRPLLTGNRWLNSGSC [TRF24]	~50 µM	–
GTEKGTSGWLKTGSC (chain 1 pos 15: Cys thiol joined via SMCC maleimide to an amine-modified cytosine of the double-stranded DNA linker. The DNA cannot be carried by the letters., also called BP1 complexed by itself to the double-stranded DNA linker) [BP1 on dsDNA]	–	Kd (Gal80 [1]): 0.482 µM
KEDNPGYSSEQDYNKLDGSC (20-mer random peptide; on the array it is attached by its C-terminal cysteine to the surface) [TRF19]	~150 µM	–
EGEWTEGKLSLRGSC (chain 1 pos 15: Cys thiol joined via SMCC maleimide to an amine-modified cytosine of the double-stranded DNA linker. The DNA cannot be carried by the letters., also called BP2 complexed by itself to the double-stranded DNA linker) [BP2 on dsDNA]	–	Kd (Gal80 [1]): 0.982 µM
linker-optimized BP1/BP2 DNA-linked synbody (BP1 on the template strand, BP2 at position 13 from the 3' end of the variable strand) (designed binder, not fully specified; C-terminal cysteine conjugated through SMCC to the amine-modified cytosine at position 13 from the 3' end of the DNA variable strand (SEQ ID NO: 15); C-terminal cysteine conjugated through SMCC to the amine-modified 5' terminal cytosine of the DNA template strand (SEQ ID NO: 14), The two peptides are held about 5 nm apart by a double-stranded DNA linker; also called Gal80 synbody; gal80 synbody) peptide 1: GTEKGTSGWLKTGSC peptide 2: EGEWTEGKLSLRGSC	–	Kd (Gal80 [2]): ~0.1 µM; Kd (Gal80 [3]): 0.091 µM
FRGWAHIFFGPHVIYRGGSC (20-mer random peptide) [TRF23]	~50 µM	–
APYAPQQIHYWSTLGFKGSC (20-mer random peptide) [TRF25]	~60 µM	–
QYHHFMNLKRQGRAQAYGSC (20-mer random peptide) [TRF21]	~60 µM	–
AHKVVPQRQIRHAYNRYGSC (20-mer random peptide) [TRF26]	~100 µM	–
